{"source": "patent US20080305517A1", "about": "“Transglutaminase Crosslinked Collagen Biomaterial for Medical Implant Materials” (ASTON UNIVERSITY, priority 2004, published 2008)", "key": {"Type III collagen": {"test_system": "Type III collagen", "assay": "Collagen fibril formation rate (turbidity at 325 nm), type III collagen", "assay_type": "biochemical", "procedure": "(§1) FIG. 2. Type III collagen fibrillogenesis after neutralisation in the presence of transglutaminases. Collagen (3 mg/ml) was neutralised as in the methods and was treated with 0, 50 or 250 μg/ml of mTG (A) or tTG (B). 500 μM inhibitor R281 was used to confirm that the effects were due to transglutaminase activity. The absorbance at 325 nm was measured using a PYE Unicam SP1800 UV spectrophotometer. The temperature was controlled at 25° C. using a Techne C-85A circulator. Results are from the average of 3 independent experiments.\n(§2) Collagen fibrillogenesis was monitored by measuring the absorbance (turbidity) at 325 nm using a PYE Unicam SP1800 UV spectrophotometer."}, "Type I collagen": {"test_system": "Type I collagen", "assay": "Collagen fibril formation rate (turbidity at 325 nm), type I collagen", "assay_type": "biochemical, calf", "procedure": "as §1, with “1.” for “2.”, “I” for “III”, “microbial TG” for “mTG”, “μM of the TGase” for “μM”, “N-Benzyloxycarbonyl-L-phenylalanyl-6-dimethyl-sulfonium-5-oxo-L-norleucine (‘R281’)” for “R281”\nas §2"}, "[1]": {"assay": "Determination of ε-(γ-glutamyl)lysine cross-link (ion exchange amino acid analysis of digested collagen)", "assay_type": "physicochemical", "settings": "for the equivalent (μg of protein) TG concentration", "procedure": "Neutralised collagen mixture was subjected to treatment by both tissue and microbial TG. Samples of the neutralised collagen were treated with 50-1000 μg/ml of tTG, in a reaction mix consisting of 2 mM DTT and 5 mM CaCl2 in 10 mM Tris buffer (pH 7.4). The reaction mixture for the microbial enzyme simply consisted of 10 mM Tris buffer (pH 7.4). Incorporated fibronectin (Sigma-Aldrich, Poole, UK. Cat no. F0895) was used at concentrations of 5 μg/ml and 50 μg/ml. Transglutaminase was always added last to the collagen-reaction mix to minimise any self-imposed cross-linking. […]\nCross-linked and native samples of collagen were proteolytically digested by a modification of the methods of Griffin and Wilson (1984), which included an initial digestion with microbial collagenase (Clostridium histolyticum; 1 mg/ml, Sigma-Aldrich, Poole, UK. Cat no. C9891), prior to the addition of further proteases. […] Derivatisation was performed post column using o-pthaldialdehyde (0.8M boric acid, 0.78M potassium hydroxide, […] o-phthaldialdehyde, 0.5% (v/v) methanol, 0.75% (v/v) 2-mercaptoethanol, 0.35% (v/v) Brij 30) and the absorbance was measured at 450 nm. Dipeptide was determined by addition of known amounts of ε(γ-glutamyl)lysine to the sample and comparing peak areas."}, "N,N′-dimethylcasein": {"test_system": "N,N′-dimethylcasein", "assay": "Transglutaminase activity: incorporation of [14-C]-putrescine into N,N′-dimethylcasein", "assay_type": "biochemical", "settings": "Unit = 1 nmol of putrescine incorporated per hour", "text": "The incorporation of [14-C]-putrescine into N,N′-dimethylcasein, as described earlier by Lorand et al. (1972) was used to assay for TG activity and monitor the effects of the inhibitors. Unit of transglutaminase activity is 1 nmol of putrescine incorporated per hour."}, "[2]": {"settings": "50 μg or 250 μg of TG, collagen 3 mg/ml, absorbance at 325 nm, 25° C., vs untreated"}}, "data": [{"molecule": "C[S+](C)CC(=O)CC[C@H](NC(=O)[C@H](Cc1ccccc1)NC(=O)OCc1ccccc1)C(=O)O.[Br-]", "note": "[R281, N-Benzyloxycarbonyl-L-phenylalanyl-6-dimethylsulfonium-5-oxo-L-nor-leucine bromide salt, reference compound]", "values": [{"measurement": "inhibition of the transglutaminase effects on fibrillogenesis", "setting": "Type III collagen; 500 μM inhibitor", "value": "abolished these effects"}, {"measurement": "inhibition of the transglutaminase effects on fibrillogenesis", "setting": "Type I collagen; 500 μM inhibitor", "value": "abolished these effects"}]}, {"molecule": "mTG: Microbial transglutaminase from Streptoverticillium mobaraenase, purified from Activa WM (Ajinomoto) (protein, UniProt P81453 77-407, looked up) Protein-glutamine …: DSDDRVTPPAEPLDRMPDPYRPSYGRAETVVNNYIRKWQQVYSHRDGRKQQMTEEQREWLSYGCVGVTWVNSGQYPTNRLAFASFDEDRFKNELKNGRPRSGETRAEFEGRVAKESFDEEKGFQRAREVASVMNRALENAHDESAYLDNLKKELANGNDALRNEDARSPFYSALRNTPSFKERNGGNHDPSRMKAVIYSKHFWSGQDRSSSADKRKYGDPDAFRPAPGTGLVDMSRDRNIPRSPTSPGEGFVNFDYGWFGAQTEADADKTVWTHGNHYHAPNGSLGAMHVYESKFRNWSEGYSDFDRGAYVITFIPKSWNTAPDKVKQGWP", "values": [{"measurement": "time taken to achieve gel formation", "setting": "Type III collagen; [2]", "value": "significant reduction"}, {"measurement": "amount of isopeptide formed, comparison in words", "setting": "[1]", "value": "much greater increase (almost two-fold)"}, {"measurement": "Activity of the transglutaminase used to pre-treat collagen for the cell experiments", "setting": "N,N′-dimethylcasein", "value": 16000, "unit": "Units/mg"}, {"measurement": "Typical activities for the transglutaminases used", "setting": "N,N′-dimethylcasein", "value": "16000-25000 Units/mg"}, {"measurement": "time taken to achieve gel formation", "setting": "Type I collagen; [2]", "value": "significant reduction"}]}]}
